In patent US20040171105A1:

Molecular target: GST fusion form of full-length human cIAP1 (human) (UniProt Q13490)
Experiment: cell-based or functional assay

Chain of GST fusion form of full-length human cIAP1 (human) (Q13490 whole entry, the tested form may be a part): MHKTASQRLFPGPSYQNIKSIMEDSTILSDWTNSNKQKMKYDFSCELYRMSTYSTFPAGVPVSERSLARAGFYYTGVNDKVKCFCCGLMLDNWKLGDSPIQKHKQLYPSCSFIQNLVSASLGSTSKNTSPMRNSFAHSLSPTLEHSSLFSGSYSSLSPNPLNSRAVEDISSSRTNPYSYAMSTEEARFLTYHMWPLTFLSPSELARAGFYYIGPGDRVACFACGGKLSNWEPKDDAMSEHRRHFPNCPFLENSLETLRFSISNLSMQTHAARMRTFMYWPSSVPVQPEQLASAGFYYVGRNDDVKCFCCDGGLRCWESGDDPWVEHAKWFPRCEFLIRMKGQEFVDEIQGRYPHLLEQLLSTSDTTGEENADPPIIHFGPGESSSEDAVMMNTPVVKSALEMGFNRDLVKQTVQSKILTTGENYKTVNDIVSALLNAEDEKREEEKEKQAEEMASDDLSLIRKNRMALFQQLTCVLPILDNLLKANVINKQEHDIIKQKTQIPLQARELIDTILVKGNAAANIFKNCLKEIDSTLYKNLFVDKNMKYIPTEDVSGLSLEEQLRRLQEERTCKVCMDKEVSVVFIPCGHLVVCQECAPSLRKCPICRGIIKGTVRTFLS

relief of cIAP1 inhibition of caspase activity in HeLa extracts: 75 nM
Substance: Omi SA (protease dead mutant Omi S306→Ala, C-terminal hexa-His tagged) (from UniProt O43464 134-458) (enzyme)
